{
  "source": "paper PMC7490560",
  "origin": "cited, not measured here",
  "target": "KEAP1 (Homo sapiens) (UniProt Q14145)",
  "sequence (Q14145 whole entry)": "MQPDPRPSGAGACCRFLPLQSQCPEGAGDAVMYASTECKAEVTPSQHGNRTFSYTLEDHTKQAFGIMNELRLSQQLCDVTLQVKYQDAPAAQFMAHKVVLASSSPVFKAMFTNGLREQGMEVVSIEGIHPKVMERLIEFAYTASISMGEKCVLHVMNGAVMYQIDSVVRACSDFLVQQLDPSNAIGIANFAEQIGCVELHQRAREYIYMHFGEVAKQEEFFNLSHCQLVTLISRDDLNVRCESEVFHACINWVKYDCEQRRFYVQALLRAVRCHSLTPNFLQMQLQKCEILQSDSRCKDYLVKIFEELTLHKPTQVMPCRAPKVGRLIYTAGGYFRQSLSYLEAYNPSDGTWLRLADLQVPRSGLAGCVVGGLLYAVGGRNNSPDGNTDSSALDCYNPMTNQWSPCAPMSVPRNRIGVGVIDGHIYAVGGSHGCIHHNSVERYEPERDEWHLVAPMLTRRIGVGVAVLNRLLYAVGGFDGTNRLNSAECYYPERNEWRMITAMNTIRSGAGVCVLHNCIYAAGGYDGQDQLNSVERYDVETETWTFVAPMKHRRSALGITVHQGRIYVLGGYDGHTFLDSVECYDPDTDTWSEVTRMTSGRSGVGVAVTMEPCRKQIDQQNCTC",
  "note": "Several values for one entry are separate records, joined by “and”; a condition that tells them apart may be missing. Identical values can stand only once.",
  "data": [
    {"substance": "NRF2 (from UniProt Q16236)", "values": [
      {"measurement": "Kd", "value": "580 nM and 167 nM"}
    ]}
  ]
}
